Experimental data published in PMC3515695 (Nature structural & molecular biology, 2012).

Target: the molecule itself
Assay: SAXS

B1: full-length Caenorhabditis elegans TDP2 (enzyme, UniProt Q9XWG3 1-362, looked up)
chain: MSNSDDEIQEIEAKRQKMSQEDSEVEIEILDEPEQGKLKNSSMSDEQKLHEFAIITATDEAFAQSILQDVDWDLKKALDVFYGSEAFAEARSAAVMGASSSMASSGAAVMTAEDLKGFEVSVMSWNIDGLDGRSLLTRMKAVAHIVKNVNPDILFLQEVVDRDLAPIDKLQSLYKIYYSNKGCQYYTAILVSKMFDVEKHDVIHFQNSGMYRTLQILEGSIGGLKVFLLNTHLESTREHRPQRCAQFGFCMDKVREIIAQNPGALVFFGGDLNLRDEEVSRVPDGVKDAWEAAGSDNKTKFTWDTFKNDNKQGFHGAKMRFDRLYWSGPLDKVKFTLEGRQRIRSCLCFPSDHWAINATFFA
stoichiometry N: 2
